Results: PMC8152229

How the values were obtained:
[1] = viscosity (falling ball micro viscometer); Tpm alone at 1.0 or 2.0 mg/mL; 30 mM Hepes-Na pH 7.3, 100 mM NaCl, 2 mM DTT; 20 °C; excess viscosity over buffer (1.0412 mPa∙s) as measure of head-to-tail interaction between Tpm dimers; settings: other: viscosity (falling ball micro viscometer)
[2] = target: F-actin from rabbit skeletal muscle, stabilised by phalloidin (rabbit) (UniProt P68135); assay: temperature dependence of light scattering; 20 uM F-actin stabilized by 20 uM phalloidin and 10 uM Tpm; 30 mM Hepes-Na pH 7.3, 100 mM NaCl, 2 mM DTT; heating 1 °C/min; light scattering at 90 degrees, 350 nm; T_diss = temperature of 50% decrease
[3] = target: F-actin from rabbit skeletal muscle, stabilised by phalloidin (rabbit) (UniProt P68135); assay: co-sedimentation; 10 uM phalloidin-stabilized F-actin mixed with increasing Tpm (0 to 5.5-6 uM; up to almost 40 uM for Tpm1.12); 30 mM Hepes-Na pH 7.3, 200 mM NaCl; 40 min at 25 °C; 100,000 x g for 40 min; SDS-PAGE of pellet and supernatant; K50% = Tpm concentration at which actin is half-saturated
[4] = test system: P09493; assay: viscosity (falling ball micro viscometer); Tpm alone at 1.0 or 2.0 mg/mL; 30 mM Hepes-Na pH 7.3, 100 mM NaCl, 2 mM DTT; 20 °C; excess viscosity over buffer (1.0412 mPa∙s) as measure of head-to-tail interaction between Tpm dimers; settings: other: viscosity (falling ball micro viscometer)

Chain of Tropomyosin isoform Tpm1.7 with Ala-Ser N-terminal extension (chain, as listed by the source): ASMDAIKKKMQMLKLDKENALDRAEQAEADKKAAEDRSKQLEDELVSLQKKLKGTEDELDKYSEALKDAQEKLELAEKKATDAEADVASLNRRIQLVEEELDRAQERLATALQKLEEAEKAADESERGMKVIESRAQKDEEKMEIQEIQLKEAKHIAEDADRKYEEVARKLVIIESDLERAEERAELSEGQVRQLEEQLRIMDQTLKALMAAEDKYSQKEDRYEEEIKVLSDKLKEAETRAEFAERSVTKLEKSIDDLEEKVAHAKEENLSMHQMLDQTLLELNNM
Chain of Tropomyosin isoform Tpm1.12 (chain, as listed by the source): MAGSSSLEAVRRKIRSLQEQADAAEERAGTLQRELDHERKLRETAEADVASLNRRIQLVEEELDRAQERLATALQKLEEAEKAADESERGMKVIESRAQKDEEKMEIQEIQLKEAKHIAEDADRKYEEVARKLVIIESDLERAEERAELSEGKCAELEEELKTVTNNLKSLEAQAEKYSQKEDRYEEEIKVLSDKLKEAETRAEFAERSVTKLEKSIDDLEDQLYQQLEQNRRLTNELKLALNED

Substance | excess viscosity at 1 mg/mL [1] | excess viscosity at 2 mg/mL [1] | T diss [2] | K50% [3] | excess viscosity at 1 mg/mL [4] | excess viscosity at 2 mg/mL [4]
Tropomyosin isoform Tpm1.5 with Ala-Ser N-terminal extension | 0.179 mPa∙s | 0.653 mPa∙s | – | – | – | –
Tropomyosin isoform Tpm1.5 with Ala-Ser N-terminal extension (natural protein) | – | – | 48.9 °C | 1.11 µM | – | –
Tropomyosin isoform Tpm1.6 with Ala-Ser N-terminal extension | 0.474 mPa∙s | 1.34 mPa∙s | – | – | – | –
Tropomyosin isoform Tpm1.6 with Ala-Ser N-terminal extension (natural protein) | – | – | 41.4 °C | 0.45 µM | – | –
Tropomyosin isoform Tpm1.7 with Ala-Ser N-terminal extension | – | – | – | – | 1.03 mPa∙s | 3.58 mPa∙s
Tropomyosin isoform Tpm1.12 | – | – | – | – | 0.026 mPa∙s | 0.066 mPa∙s
